Test results: patent publication US20030082173A1 (ST JUDE CHILDREN S RESEARCH HOSPITAL, published 2003)

Biological target: T1, calcium-signal modulating cyclophilin ligand (CAML), human, full length (human, UniProt P49069 1-296)
T1 construct: mature; In the co-immunoprecipitation it was expressed from pBJ5 in 293T cells
T1 sequence (looked up): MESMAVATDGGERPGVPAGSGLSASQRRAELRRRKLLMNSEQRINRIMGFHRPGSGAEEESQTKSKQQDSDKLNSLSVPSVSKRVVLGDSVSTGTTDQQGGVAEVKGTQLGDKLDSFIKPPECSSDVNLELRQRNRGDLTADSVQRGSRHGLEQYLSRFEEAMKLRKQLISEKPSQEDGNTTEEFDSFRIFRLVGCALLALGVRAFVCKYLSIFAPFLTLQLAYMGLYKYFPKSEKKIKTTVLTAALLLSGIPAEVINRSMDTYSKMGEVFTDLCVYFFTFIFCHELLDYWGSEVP
Assay: yeast two-hybrid screen of a human B-lymphocyte cDNA library with full-length CAML as bait

binding result: binds
B1: Transmembrane Activator and CAML-Interactor protein TACI-1 (human, full length, 293 amino acids) (receptor)
chain: MSGLGRSRRGGRSRVDQEERFPQGLWTGVAMRSCPEEQYWDPLLGTCMSCKTICNHQSQRTCAAFCRSLSCRKEQGKFYDHLLRDCISCASICGQHPKQCAYFCENKLRSPVNLPPELRRQRSGEVENNSDNSGRYQGLEHRGSEASPALPGLKLSADQVALVYSTLGLCLCAVLCCFLVAVACFLKKRGDPCSCQPRSRPRQSPAKSSQDHAMEAGSPVSTSPEPVETCSFCFPECRAPTQESAVTPGTPDPTCAGRWGCHTRTTVLQPCPHIPDSGLGIVCVPAQEGGPGA
notes: Untagged full-length protein expressed from pBJ5 on TAg Jurkat T cells for flow cytometry and reporter assays; In the yeast two-hybrid tests it was fused to a GAL4 domain (pACT or pAS1); also called TACI protein; TCB
